“Also recorded” adds a separate entry of the source. Non-standard residues stand in square brackets, D forms with d. No end group written: not given here. Cit = NC(=O)NCCC[C@H](N)C(=O)O
Experiments:
human plasma = assay: Cholesterol efflux activity of human plasma treated with lipid-free peptide (J774 cells); format: cell-based; settings: human plasma with 300 μg/ml peptide 5 minutes (4° C.), diluted to 1%, cAMP treated J774 cells, vs vehicle-treated plasma
Protocol: To test whether CS6253 exerts anti-atherogenic effects in a biological milieu, human plasma was exposed (5 min) to lipid-free peptide. Interactions of CS6253 with HDL and activity of plasma to stimulate cholesterol efflux was assessed, using J774 macrophages labeled with [^3H]cholesterol. Panel A—Cholesterol efflux activity of plasma treated with lipid-free peptides. Human plasma was incubated with 300 μg/ml peptides for 5 minutes (4° C.), diluted to 1% in serum-free RPMI-1640 culture medium and immediately added to [^3H]cholesterol-labeled J774 cells. […] Panel B—Induction of preβ HDL upon treatment of human plasma with CS6253. Plasma was exposed to a small amount of peptide relative to endogenous apoA-I (1:10 mole ratio, respectively) and formation of preβ HDL assessed by 2D non-denaturing gradient gel electrophoresis (NDGGE) and western blot analysis. […] This is consistent with no peptide being associated with the preβ HDL fraction, indicating the particles were authentic preβ particles composed on endogenous apoA-I.

ABCA1 [1] = biological target: T1, ABCA1 (Mus musculus, UniProt P41233); assay: ABCA1-dependent [3H]cholesterol efflux from J774 macrophages with and without cAMP; format: cell-based
T1 construct: treated (18 h) with a cAMP analog to induce ABCA1 protein expression; endogenous in cells; host or cells: J774 macrophages
From the text: Suitable cholesterol efflux assays are described in, e.g., Bielicki, J. K and Oda, M. N., Biochemistry, 41:2089-2096 (2002); Jia et al., Biochem. Biophys. Res. Common., 297:206-213 (2002). In some embodiments, a polypeptide known to mediate cholesterol efflux (e.g., helix 9/10 of Apo A-I) is used to screen for additional mediators of cholesterol efflux in a cell based assay. For example, cell lines in which cholesterol efflux can be enhanced using a cAMP analog that up-regulates ABCA1 protein expression (e.g., J774 macrophages) can conveniently be used to assess the ability of a polypeptide of the present invention to mediate cholesterol efflux. The cells are incubated with labeled cholesterol (e.g., [^3H]cholesterol) under conditions appropriate for cholesterol uptake by the cells. Thus, cAMP or cAMP analogs (e.g., CPT-cAMP) are incubated with the cells for a suitable time before the initiation of cellular cholesterol efflux, i.e., prior to contacting the cells with a test polypeptide. Measurement of labeled cholesterol appearing in the medium is used to determine the cholesterol efflux mediating activity of the test polypeptide.
Aliphatic analogs of ATI-5261 lacking phenylalanine residues retained potent ABCA1 selective cholesterol efflux activity (FIG. 7). J774 macrophages were labeled (48 h) with [^3H]cholesterol and treated (18 h) with a cAMP analog to induce ABCA1 protein expression; cells incubated in the absence of cAMP (left bars) served as controls. […] Peptides were used at a concentration of 30 μg/ml, which was maximal for promoting cholesterol efflux activity. Panel B—Dependence of cholesterol efflux on the concentration of peptides. […] Results are expressed as the difference in cholesterol efflux (%/4 h) observed using cAMP treated vs. non-treated J774 cells. Values are means±SD, n=3.

ABCA1 [2] = biological target: T1, ABCA1; assay: as above; format: cell-based; parameters: ABCA1-dependent cholesterol efflux: dose or concentration left out as unconfirmed
ABCG1 = biological target: T2, ABCG1 (Homo sapiens, UniProt P45844); assay: ABCG1 mediated cholesterol efflux from BHK cells stably transfected with ABCG1; format: cell-based; settings: BHK cells ABCG1 vs. mock transfected, 50 μg peptide/ml serum-free medium
T2 construct: expressed in transfected cells; host or cells: BHK cells, stably transfected
Protocol: To further evaluate potential anti-atherogenic mechanisms of CS6253, BHK cells stably transfected with ABCG1 and mock-transfected control cells were labeled with [3H]cholesterol and used in efflux experiments. The citrulline form of LeuATI-5261 (CS6253) lipidated with POPC and ATI-5261 were used as cholesterol efflux acceptors at 50 μg peptide/ml serum-free medium. Panel A—Time-course for ABCG1 mediated cholesterol efflux from cells to lipid-free CS6253 peptide or CS6253:POPC complexes. […] Panel B—Comparison between CS6253 and ATI-5261 in mediating cellular cholesterol efflux via ABCG1. [3H]cholesterol labeled BHK cells (ABCG1 vs. mock transfected) were incubated with either lipid-free peptide or peptides formulated with POPC.

apoE−/− mice = assay: Macrophage reverse cholesterol transport (RCT) to feces in vivo; parameters: species or system mouse; settings: male apoE−/− mice, IP lipid-free peptide 10 or 30 mg/kg
Protocol: J774 macrophage foam-cells (acetylated LDL, 100 μg/ml) labeled with [^3H]cholesterol were injected IP into male, atherosclerotic apoE deficient (apoE^−/−) mice 5 months of age together with vehicle alone (PBS) or with lipid-free CS6253 peptide at doses of 10 or 30 mg/kg. Feces were collected at 24 h for assessment of [^3H]sterol. Values are means±SD, n=5 mice per group.

hamsters = assay: Lipoprotein profile in hamsters after sc injection (ion mobility, 2D gel); format: in vivo, hamster
Protocol: This example employed peptide T5237-4 EVCit[…]it[…] (SEQ ID NO:2) (Cit=citrulline). […] Following removal of albumin by centrifugations plasma was injected and lipoproteins separated with gas-phase differential electrophoretic macromolecular mobility-based method (ion mobility, or IM) (Caulfield et al. Clin Chem 2008 54:8 1307-16). […] The panel in the upper right hand corner is derived from a 2D gel separation (size and charge separation).

[3] = cAMP treated J774 cells, increasing concentration of peptides, 4 h
[4] = hamsters, 10, 30 and 100 mg/kg sc, plasma 4 h, dose-response

T1 sequence (P41233 whole entry): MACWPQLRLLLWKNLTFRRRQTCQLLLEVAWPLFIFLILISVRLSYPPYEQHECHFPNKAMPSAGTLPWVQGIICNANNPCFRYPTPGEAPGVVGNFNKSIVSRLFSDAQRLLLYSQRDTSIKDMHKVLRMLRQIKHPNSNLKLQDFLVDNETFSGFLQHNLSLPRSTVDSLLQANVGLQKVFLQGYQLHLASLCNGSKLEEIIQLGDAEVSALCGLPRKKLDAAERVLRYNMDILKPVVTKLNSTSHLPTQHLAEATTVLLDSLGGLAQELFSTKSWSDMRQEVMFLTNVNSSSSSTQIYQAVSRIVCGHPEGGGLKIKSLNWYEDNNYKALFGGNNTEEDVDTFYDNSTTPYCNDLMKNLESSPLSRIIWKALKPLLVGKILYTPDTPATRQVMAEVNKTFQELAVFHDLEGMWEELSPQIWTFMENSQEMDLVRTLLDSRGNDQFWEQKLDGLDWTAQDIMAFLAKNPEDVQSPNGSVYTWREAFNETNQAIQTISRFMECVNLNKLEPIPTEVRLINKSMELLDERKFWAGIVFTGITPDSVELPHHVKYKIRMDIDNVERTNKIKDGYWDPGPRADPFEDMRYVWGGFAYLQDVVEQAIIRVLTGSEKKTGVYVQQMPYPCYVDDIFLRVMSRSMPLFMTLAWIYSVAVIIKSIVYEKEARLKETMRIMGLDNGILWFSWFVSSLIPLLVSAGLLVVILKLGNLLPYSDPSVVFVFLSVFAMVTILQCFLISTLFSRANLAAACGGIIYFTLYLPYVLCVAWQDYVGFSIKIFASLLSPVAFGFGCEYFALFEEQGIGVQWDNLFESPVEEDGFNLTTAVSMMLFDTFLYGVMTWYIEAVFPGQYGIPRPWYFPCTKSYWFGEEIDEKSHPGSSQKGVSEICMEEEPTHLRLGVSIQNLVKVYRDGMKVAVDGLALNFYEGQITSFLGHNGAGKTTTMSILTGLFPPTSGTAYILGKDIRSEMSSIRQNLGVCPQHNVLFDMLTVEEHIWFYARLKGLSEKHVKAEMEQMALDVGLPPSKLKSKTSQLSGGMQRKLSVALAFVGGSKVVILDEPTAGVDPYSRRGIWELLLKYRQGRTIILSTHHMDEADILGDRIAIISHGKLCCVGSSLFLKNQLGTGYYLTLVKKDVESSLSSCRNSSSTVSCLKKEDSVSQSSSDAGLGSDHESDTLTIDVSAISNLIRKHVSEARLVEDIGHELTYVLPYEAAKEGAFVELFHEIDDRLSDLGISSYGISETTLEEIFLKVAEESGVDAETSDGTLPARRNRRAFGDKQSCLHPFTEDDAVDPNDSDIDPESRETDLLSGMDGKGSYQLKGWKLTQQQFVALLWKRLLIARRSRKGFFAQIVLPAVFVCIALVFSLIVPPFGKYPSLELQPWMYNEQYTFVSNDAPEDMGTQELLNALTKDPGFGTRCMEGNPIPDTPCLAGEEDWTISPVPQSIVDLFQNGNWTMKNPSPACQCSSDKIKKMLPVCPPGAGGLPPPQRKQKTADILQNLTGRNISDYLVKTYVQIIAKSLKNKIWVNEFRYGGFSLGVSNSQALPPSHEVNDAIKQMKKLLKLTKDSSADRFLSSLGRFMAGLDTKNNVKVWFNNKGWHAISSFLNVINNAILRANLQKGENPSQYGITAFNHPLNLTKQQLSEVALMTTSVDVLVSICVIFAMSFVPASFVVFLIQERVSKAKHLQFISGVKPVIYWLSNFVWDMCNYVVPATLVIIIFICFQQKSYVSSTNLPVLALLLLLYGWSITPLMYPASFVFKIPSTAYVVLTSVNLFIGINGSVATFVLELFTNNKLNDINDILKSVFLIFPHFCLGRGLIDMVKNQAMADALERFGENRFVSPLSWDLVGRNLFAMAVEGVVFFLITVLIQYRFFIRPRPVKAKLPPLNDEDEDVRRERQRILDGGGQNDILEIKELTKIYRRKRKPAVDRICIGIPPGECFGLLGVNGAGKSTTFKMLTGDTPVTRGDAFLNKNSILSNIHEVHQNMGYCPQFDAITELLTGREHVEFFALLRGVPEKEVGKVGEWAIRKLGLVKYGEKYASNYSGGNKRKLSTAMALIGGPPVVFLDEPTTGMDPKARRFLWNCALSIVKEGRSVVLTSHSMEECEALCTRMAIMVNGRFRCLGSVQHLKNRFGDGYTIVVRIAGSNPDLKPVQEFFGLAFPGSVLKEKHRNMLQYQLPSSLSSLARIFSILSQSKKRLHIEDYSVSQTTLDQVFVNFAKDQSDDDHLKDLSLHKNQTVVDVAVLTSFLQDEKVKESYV

Substance	capacity of peptide-treated plasma to stimulate cholesterol efflux via ABCA1 (human plasma)	peptide concentration at saturation in cholesterol efflux (ABCA1 [1]; [3])	ABCA1-dependent cholesterol efflux activity (ABCA1 [2]; J774 macrophages with/without cAMP, peptide 10 μg/ml)	ABCG1 mediated cholesterol efflux (ABCG1)	macrophage RCT, [3H]sterol in feces at 24 h (apoE−/− mice)	preβ-HDL (2D gel, apoA-I antibody) (hamsters; hamsters, 100 mg/kg sc, 1 h, 2 h, and 4 h)	LDL (hamsters; [4])	small HDL (hamsters; [4])	cholesterol efflux activity compared with parent ATI-5261 (ABCA1 [1]; J774 cells with and without cAMP)	Km (cholesterol efflux potency) on molar basis (ABCA1 [1]; cAMP treated J774, lipid-free peptide, 4 h, Michaelis Menten equation)	Km for cholesterol efflux (ABCA1 [1]; [3])	ABCA1-dependent cholesterol efflux (ABCA1 [2]; J774 with/without cAMP, acceptors lipid-free, 4 h)
ATI-5261: HDL mimetic peptide, parent peptide; triglyceride elevating and muscle toxic peptide used as positive control (EVRSKLEEWFAAFREFAEEFLARLKS) [reference compound]	greater capacity to stimulate cholesterol efflux	roughly 3 μg/ml	overall greater efflux response	poorly active								
EVCitSKLEEWLAALCitELAEELLARLKS (SEQ ID NO:2) (EV[Cit]SKLEEWLAAL[Cit]ELAEELLARLKS) [CS6253, citrulline form of LeuATI-5261, R3,14→Citrulline, 26-mer]	greater capacity to stimulate cholesterol efflux	3 µg/mL		relatively poor activity	stimulated macrophage RCT	preβ-HDL increase	LDL lowering	small HDL increase	identical to that observed using the parent ATI-5261 peptide	near apolipoproteins molar potency	high potency; also recorded: low Km	stimulated ABCA1-dependent cholesterol efflux similar to native apolipoproteins
